In article PMC3195435:

Columns and labels:
Settings in all cases: 4% glycerol, 1 mM MgCl2, 1 mM DTT, 50 mM NaCl, 10 mM Tris-HCl pH 7.5, room temperature 30 min; EMSA on 4% native PAGE in 45 mM Tris-borate, 2 mM EDTA pH 8.3 at …
[1] = tested on: anti-FLAG M2 antibody (mouse); assay: competition
[2] = tested on: anti-FLAG M2 antibody (mouse); assay: EMSA
[3] = tested on: anti-FLAG M2 antibody (mouse); assay: bead pull-down, competition

Sequence	binding signal (% inhibition of Flag-TRF2dB capture) [1]	Kd [2]	IC50 [3]	binding signal (% release of bound Flag-TRF2dB) [1]
TCGATTTCCTTAGTTGTCTTCCTTAGTGAG [ABA]	45	80 nM	96 nM	
TCGATTTCCTTAGTTGTCTTCCTTAGTTGTCTTCCTTAGTTGTCTTCCTTAGTGAG [3XABA]	62			36
